This note sets out measurements from patent US20220098307A1 (WUHAN YZY BIOPHARMA, published 2022).

For one assay, the target named is T1, human CEA (human, UniProt P06731 35-685).
T1 sequence: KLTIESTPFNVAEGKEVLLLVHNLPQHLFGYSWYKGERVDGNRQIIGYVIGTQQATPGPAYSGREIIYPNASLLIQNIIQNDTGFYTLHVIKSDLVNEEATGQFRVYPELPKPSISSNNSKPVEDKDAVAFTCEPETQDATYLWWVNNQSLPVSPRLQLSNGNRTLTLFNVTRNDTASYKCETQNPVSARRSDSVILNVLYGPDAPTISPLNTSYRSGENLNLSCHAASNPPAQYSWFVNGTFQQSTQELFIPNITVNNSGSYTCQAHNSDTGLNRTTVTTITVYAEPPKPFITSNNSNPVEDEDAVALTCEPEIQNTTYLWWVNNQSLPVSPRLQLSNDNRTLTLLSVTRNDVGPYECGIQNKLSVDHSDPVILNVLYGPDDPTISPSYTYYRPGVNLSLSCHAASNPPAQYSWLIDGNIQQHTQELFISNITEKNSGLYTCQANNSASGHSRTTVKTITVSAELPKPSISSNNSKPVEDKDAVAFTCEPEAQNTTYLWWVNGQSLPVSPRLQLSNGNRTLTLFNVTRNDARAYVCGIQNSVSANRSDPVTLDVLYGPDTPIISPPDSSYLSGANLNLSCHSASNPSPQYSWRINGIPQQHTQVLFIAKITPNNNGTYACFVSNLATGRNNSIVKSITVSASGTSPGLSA
Kind of assay: flow cytometry, human tumor cells (table of the CEA series). An excerpt: (§1) 1) Cell preparation: T cells isolated from CD3-positive human whole blood were used for a CD3 end affinity detection of multifunctional antibody molecule; positive tumor cells of corresponding antigen were used for detecting affinity of tumor antigen; for example, CD38-positive MM. 1S cells (purchased from the Cell Resource Center of Shanghai Institutes for Biological Sciences, Chinese Academy of Sciences) or RPMI 8226 cells (purchased from the Cell Resource Center of Shanghai Institutes for Biological Sciences, Chinese Academy of Sciences) were used for CD38 antigen detection, and PD-L1 positive H358 cells (purchased from the Cell Resource Center of Shanghai Institutes for Biological Sciences, Chinese Academy of Sciences) were used for PD-L1 antigen detection, and so on. The cells were resuspended with 1% FBS-PBS, adjusted to a density of 4×10⁶/ml, and 50 μl of cells were taken from each well, and then plated at 2×10⁵ per well. Cell plating was operated on ice
(§2) 2) Addition of the antibody: according to the experimental design, the antibody was diluted gradually, and dilution of antibody was operated on ice. For example, the initial concentration of antibody for dilution was 3000 nM, and the antibody was diluted by 3 times with 11 concentration gradients. The diluted antibody was added to a cell well at 50 μl per well, mixed well, and shaked and incubated at 4° C. 1100 rpm/min for 2 h; after washing, the cells were resuspend in 1% FBS-PBS, and a diluted secondary antibody PE anti-human IgG FC (Biolegend, 409304) was added with a final concentration of 8 ug/ml and a volume of 50 μl/well. At the same time, a well only added with cells and secondary antibody was set as a control, the components were mixed well, and incubated under shaking at 1100 rpm/min at 4° C. for 1 h;
(§3) 5) Data analysis: the data was analyzed by a flow analysis software FlowJo 7.6 thereby obtaining an average fluorescence intensity of the specific antibody concentration, plotted by a Graphpad Prism 5 with the antibody concentration (nM) as an abscissa and the average fluorescence intensity as an ordinate; the EC50 value was calculated by the method of One site—Specific binding, and the EC50 value indicated the cell affinity of the antibody to the corresponding target antigen.

In a further assay the target is T2, Human CD3ε (human, UniProt P07766 23-126).
T2 construct: CD3 on T cells isolated from human whole blood
Kind of assay: flow cytometry, human T cells. In short, it runs like this:
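Antibody titrations (11 points, 3-fold from 3000 nM) incubated 2 h at 4° C with 2×10⁵ target cells per well—T cells for CD3, antigen-positive tumor lines such as MM.1S or RPMI 8226 for CD38.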

For another assay, the target named is T3, Monkey CD3 (monkey).
T3 construct: whole, on cells; also called CD3 of monkey CD3 positive T cells
Kind of assay: flow cytometry, monkey T cells.

For a further assay, the target named is T4, Human BCMA (human, UniProt Q02223 1-54).
T4 sequence: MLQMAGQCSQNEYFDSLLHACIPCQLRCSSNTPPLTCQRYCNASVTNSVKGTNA
Kind of assay: flow cytometry, human tumor cells (BCMA+).
Source text: as §1, §2, §3

B1: M3IC-PG2 (bispecific antibody)
chain 1: EVKLDETGGGLVQPGRPMKLSCVASGFTFSDYWMNWVRQSPEKGLEWVAQIRNKPYNYETYYSDSVKGRFTISRDDSKSSVYLQMNNLRVEDMGIYYCTGSYYGMDYWGQGTSVTVSSASTKGPSVFPLAPSSKSTSGGTAALGCLVKDYFPEPVTVSWNSGALTSGVHTFPAVLQSSGLYSLSSVVTVPSSSLGTQTYICNVNHKPSNTKVDKKVEPKSCGGGGSGGGGSQVQLVESGGGVVQPGRSLRLSCAASGFTFSTYAMNWVRQAPGKGLEWVARIRSKYNNYATYYADSVKDRFTISRDDSKNTLYLQMNSLRAEDTAVYYCARHGNFGNSYVSWFAYWGQGTLVTVSSASVAAPSVFIFPPSDEQLKSGTASVVCLLNNFYPREAKVQWKVDNALQSGNSQESVTEQDSKDSTYSLSSTLTLSKADYEKHKVYACEVTHQGLSSPVTKSFNRGECDKTHTCPPPPAPPVAGPSVFLFPPKPKDTLMISRTPEVTCVVVDVSHEDPEVQFNWYVDGVEVHNAKTKPREEQFNSTFRVVSVLTVVHQDWLNGKEYKCKVSNKGLPAPIEKTISKTKGQPREPQVYTLPPCRDELTKNQVSLWCLVKGFYPSDIAVEWESNGQPENNYKTTPPVLDSDGSFFLYSKLTVDKSRWQQGNVFSCSVMHEALHNHYTQKSLSLSPGK
chain 2: QTVVTQEPSLTVSPGGTVTLTCRSSTGAVTTSNYANWVQQKPGQAPRGLIGGTNKRAPGVPARFSGSLLGGKAALTLSGVQPEDEAEYYCALWYSNLWVFGGGTKVEIKSSASTKGPSVFPLAPSSKSTSGGTAALGCLVKDYFPEPVTVSWNSGALTSGVHTFPAVLQSSGLYSLSSVVTVPSSSLGTQTYICNVNHKPSNTKVDKKVEPKSC
heavy: EVKLDETGGGLVQPGRPMKLSCVASGFTFSDYWMNWVRQSPEKGLEWVAQIRNKPYNYETYYSDSVKGRFTISRDDSKSSVYLQMNNLRVEDMGIYYCTGSYYGMDYWGQGTSVTVSSASTKGPSVFPLAPSSKSTSGGTAALGCLVKDYFPEPVTVSWNSGALTSGVHTFPAVLQSSGLYSLSSVVTVPSSSLGTQTYICNVNHKPSNTKVDKKVEPKSCDKTHTCPPPPAPPVAGPSVFLFPPKPKDTLMISRTPEVTCVVVDVSHEDPEVQFNWYVDGVEVHNAKTKPREEQFNSTFRVVSVLTVVHQDWLNGKEYKCKVSNKGLPAPIEKTISKTKGQPREPQVCTLPPSRDELTKNQVSLSCAVKGFYPSDIAVEWESNGQPENNYKTTPPVLDSDGSFFLVSKLTVDKSRWQQGNVFSCSVMHEALHNRFTQKSLSLSPGK
light: DVVMTQTPLSLPVSLGDQASISCRSSQSLVHSNGNTYLRWYLQKPGQSPKVLIYKVSNRFSGVPDRFSGSGSGTDFTLKISRVEAEDLGVYFCSQSTHVPWTFGGGTKLEIKRTVAAPSVFIFPPSDEQLKSGTASVVCLLNNFYPREAKVQWKVDNALQSGNSQESVTEQDSKDSTYSLSSTLTLSKADYEKHKVYACEVTHQGLSSPVTKSFNRGEC
notes: structure 3 isotype control; CH2 PG2CH2
Regarding B1, the binding result with human CEA is on record as “no binding”. This molecule yielded an EC50 with Human CD3ε of 696 nM.

B2: M3IC-SG2 (bispecific antibody)
chain 1: EVKLDETGGGLVQPGRPMKLSCVASGFTFSDYWMNWVRQSPEKGLEWVAQIRNKPYNYETYYSDSVKGRFTISRDDSKSSVYLQMNNLRVEDMGIYYCTGSYYGMDYWGQGTSVTVSSASTKGPSVFPLAPSSKSTSGGTAALGCLVKDYFPEPVTVSWNSGALTSGVHTFPAVLQSSGLYSLSSVVTVPSSSLGTQTYICNVNHKPSNTKVDKKVEPKSCGGGGSGGGGSQVQLVESGGGVVQPGRSLRLSCAASGFTFSTYAMNWVRQAPGKGLEWVARIRSKYNNYATYYADSVKDRFTISRDDSKNTLYLQMNSLRAEDTAVYYCARHGNFGNSYVSWFAYWGQGTLVTVSSASVAAPSVFIFPPSDEQLKSGTASVVCLLNNFYPREAKVQWKVDNALQSGNSQESVTEQDSKDSTYSLSSTLTLSKADYEKHKVYACEVTHQGLSSPVTKSFNRGECDKTHTCPPSPAPPVAGPSVFLFPPKPKDTLMISRTPEVTCVVVDVSHEDPEVQFNWYVDGVEVHNAKTKPREEQFNSTFRVVSVLTVVHQDWLNGKEYKCKVSNKGLPAPIEKTISKTKGQPREPQVYTLPPCRDELTKNQVSLWCLVKGFYPSDIAVEWESNGQPENNYKTTPPVLDSDGSFFLYSKLTVDKSRWQQGNVFSCSVMHEALHNHYTQKSLSLSPGK
chain 2: QTVVTQEPSLTVSPGGTVTLTCRSSTGAVTTSNYANWVQQKPGQAPRGLIGGTNKRAPGVPARFSGSLLGGKAALTLSGVQPEDEAEYYCALWYSNLWVFGGGTKVEIKSSASTKGPSVFPLAPSSKSTSGGTAALGCLVKDYFPEPVTVSWNSGALTSGVHTFPAVLQSSGLYSLSSVVTVPSSSLGTQTYICNVNHKPSNTKVDKKVEPKSC
heavy: EVKLDETGGGLVQPGRPMKLSCVASGFTFSDYWMNWVRQSPEKGLEWVAQIRNKPYNYETYYSDSVKGRFTISRDDSKSSVYLQMNNLRVEDMGIYYCTGSYYGMDYWGQGTSVTVSSASTKGPSVFPLAPSSKSTSGGTAALGCLVKDYFPEPVTVSWNSGALTSGVHTFPAVLQSSGLYSLSSVVTVPSSSLGTQTYICNVNHKPSNTKVDKKVEPKSCDKTHTCPPSPAPPVAGPSVFLFPPKPKDTLMISRTPEVTCVVVDVSHEDPEVQFNWYVDGVEVHNAKTKPREEQFNSTFRVVSVLTVVHQDWLNGKEYKCKVSNKGLPAPIEKTISKTKGQPREPQVCTLPPSRDELTKNQVSLSCAVKGFYPSDIAVEWESNGQPENNYKTTPPVLDSDGSFFLVSKLTVDKSRWQQGNVFSCSVMHEALHNRFTQKSLSLSPGK
light: DVVMTQTPLSLPVSLGDQASISCRSSQSLVHSNGNTYLRWYLQKPGQSPKVLIYKVSNRFSGVPDRFSGSGSGTDFTLKISRVEAEDLGVYFCSQSTHVPWTFGGGTKLEIKRTVAAPSVFIFPPSDEQLKSGTASVVCLLNNFYPREAKVQWKVDNALQSGNSQESVTEQDSKDSTYSLSSTLTLSKADYEKHKVYACEVTHQGLSSPVTKSFNRGEC
notes: structure 3 isotype control; CH2 SG2CH2
B2: the binding result with human CEA is reported as “no binding”. In the assay with Human CD3ε, the EC50 came to 677 nM.

B3: BCMA-M2-WT (bispecific antibody, human IgG1, kappa)
chain: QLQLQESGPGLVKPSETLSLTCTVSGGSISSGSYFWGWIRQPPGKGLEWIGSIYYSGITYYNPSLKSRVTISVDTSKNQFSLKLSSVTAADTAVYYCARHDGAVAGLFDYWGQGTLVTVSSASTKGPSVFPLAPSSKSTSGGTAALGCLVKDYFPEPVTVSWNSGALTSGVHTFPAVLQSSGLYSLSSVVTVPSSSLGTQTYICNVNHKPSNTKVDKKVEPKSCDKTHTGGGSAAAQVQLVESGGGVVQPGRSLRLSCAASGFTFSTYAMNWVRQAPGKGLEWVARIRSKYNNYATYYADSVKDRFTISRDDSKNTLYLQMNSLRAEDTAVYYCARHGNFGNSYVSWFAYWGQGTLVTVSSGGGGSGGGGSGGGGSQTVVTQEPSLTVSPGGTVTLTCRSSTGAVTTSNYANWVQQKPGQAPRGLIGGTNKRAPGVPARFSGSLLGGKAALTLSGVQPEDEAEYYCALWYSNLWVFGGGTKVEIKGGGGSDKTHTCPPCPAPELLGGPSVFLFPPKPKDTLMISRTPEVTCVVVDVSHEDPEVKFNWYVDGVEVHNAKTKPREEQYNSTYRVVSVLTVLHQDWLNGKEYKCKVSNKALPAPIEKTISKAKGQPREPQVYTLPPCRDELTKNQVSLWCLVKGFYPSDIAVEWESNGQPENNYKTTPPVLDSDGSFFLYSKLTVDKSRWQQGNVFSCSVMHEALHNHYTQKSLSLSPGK
heavy: QLQLQESGPGLVKPSETLSLTCTVSGGSISSGSYFWGWIRQPPGKGLEWIGSIYYSGITYYNPSLKSRVTISVDTSKNQFSLKLSSVTAADTAVYYCARHDGAVAGLFDYWGQGTLVTVSSASTKGPSVFPLAPSSKSTSGGTAALGCLVKDYFPEPVTVSWNSGALTSGVHTFPAVLQSSGLYSLSSVVTVPSSSLGTQTYICNVNHKPSNTKVDKKVEPKSCDKTHTCPPCPAPELLGGPSVFLFPPKPKDTLMISRTPEVTCVVVDVSHEDPEVKFNWYVDGVEVHNAKTKPREEQYNSTYRVVSVLTVLHQDWLNGKEYKCKVSNKALPAPIEKTISKAKGQPREPQVCTLPPSRDELTKNQVSLSCAVKGFYPSDIAVEWESNGQPENNYKTTPPVLDSDGSFFLVSKLTVDKSRWQQGNVFSCSVMHEALHNRFTQKSLSLSPGK
light: SYVLTQPPSVSVAPGQTARITCGGNNIGSKSVHWYQQPPGQAPVVVVYDDSDRPSGIPERFSGNSNGNTATLTISRVEAGDEAVYYCQVWDSSSDHVVFGGGTKLTVLRTVAAPSVFIFPPSDEQLKSGTASVVCLLNNFYPREAKVQWKVDNALQSGNSQESVTEQDSKDSTYSLSSTLTLSKADYEKHKVYACEVTHQGLSSPVTKSFNRGEC
notes: structure 2 (fusion peptide 2, heavy, two light chains); BCMA x CD3; CH2 WT
As for B3, the figures for the EC50 with Monkey CD3, with Human CD3ε and with Human BCMA were 676 nM, 588 nM and 20.3 nM, respectively.
